Experimental data as given in patent US20210380703A1 (RIGEL PHARMACEUTICALS, published 2021).

Columns and labels:
[1] = target: T1, Goat anti-Human Kappa; experiment: ELISA; positive control
T1 construct: Positive control; also called biotinylated goat anti-human kappa light chain
Summary of the method: (§1)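 Monoclonal antibodies were first applied to human or mouse ACVR2A, alongside biotinylated goat anti-human kappa light chain (positive control) and human Fc (negative control); binding was then determined by ELISA.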

[2] = target: T2, Human ACVR2A (human, UniProt P27037 20-135, limits assumed); experiment: ELISA
T2 construct: also called activin receptor, type II A
T2 sequence (P27037 20-135 limits assumed): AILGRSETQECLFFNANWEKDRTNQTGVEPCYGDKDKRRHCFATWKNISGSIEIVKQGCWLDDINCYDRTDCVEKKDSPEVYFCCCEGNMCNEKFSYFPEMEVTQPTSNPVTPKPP
Summary of the method: (§2)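 Binding signal was read by ELISA after ACVR2A-specific monoclonal antibodies were tested against human ACVR2A and mouse ACVR2A, with human Fc as the negative control.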

[3] = target: Mouse ACVR2A (mouse, UniProt P27038 20-135, limits assumed); experiment: ELISA
Sequence of Mouse ACVR2A (P27038 20-135 limits assumed): as the sequence (P27037 20-135 limits assumed) above, with K20R, V73I counted along it
Summary of the method: as §2

[4] = target: T3, biotinylated goat anti-human kappa light chain; experiment: ELISA; positive control
T3 construct: Positive control of the ELISA
Summary of the method: as §1

[5] = target: mouse ACVR2A (mouse, UniProt P27038 20-135, limits assumed); experiment: ELISA
Sequence of mouse ACVR2A (P27038 20-135 limits assumed): as the sequence (P27037 20-135 limits assumed) above, with K20R, V73I counted along it
Summary of the method: as §2

[6] = target: human ACVR2A (human, UniProt P27037 20-135, limits assumed); experiment: ELISA
Sequence of human ACVR2A (P27037 20-135 limits assumed): as the sequence (P27037 20-135 limits assumed) above
Summary of the method: as §2
Also: test concentration or dose not given here.

optical density [1]	optical density [2]	optical density [3]	optical density [4]	optical density [5]	optical density [6]	Binder
3.42 OD	2.1 OD	2.44 OD	–	–	–	366_H09 (antibody, V domains shown, VH/VL only) VH: EVQLLESGGGLVQPGGSLRLSCAASGFTFDSYGMNWVRQAPGKGLEWVSNINYNSGYKGYADSVKGRFTISRDNSKNTLYLQMNSLRAEDTAVYYCARSANWHDTALDYWGQGTLVTVSS VL: DIQMTQSPSSLSASVGDRVTITCRASQSIVSYVNWYQQKPGKAPKLVIYATTSRASGVPSRFSGSGSGTDFTLTISSLQPEDFATYYCQQSYSSPLTFGGGTKVEIK
–	–	–	3.58 OD	3.27 OD	3.46 OD	370_A09 (antibody, V domains shown, VH/VL only) VH: EVQLLESGGGLVQPGGSLRLSCAASGFTFSSYSMNWVRQAPGKGLEWVAGINYNGGYTGYADSVKGRFTISRDNSKNTLYLQMNSLRAEDTAVYYCARSATWHDTHLDYWGQGTLVTVSS VL: DIQMTQSPSSLSASVGDRVTITCRASQSILTYLNWYQQKPGKAPKLVIYAATSRASGVPSRFSGSGSGTDFTLTISSLQPEDFATYYCQQSYDTPLTFGGGTKVEIK
3.53 OD	2.29 OD	2.42 OD	–	–	–	367_B02 (antibody, V domains shown, VH/VL only) VH: EVQLLESGGGLVQPGGSLRLSCAASGFTFDSYGMNWVRQAPGKGLEWVSSINYNGGYTSYADSVKGRFTISRDNSKNTLYLQMNSLRAEDTAVYYCARSANWHDTALDYWGQGTLVTVSS VL: not shown
–	–	–	3.47 OD	2.51 OD	2.26 OD	365_F04 (antibody, V domains shown, VH/VL only) VH: EVQLLESGGGLVQPGGSLRLSCAASGFTFSSYGMNWVRQAPGKGLEWVAGINYNGGYTGYADSVKGRFTISRDNSKNTLYLQMNSLRAEDTAVYYCARSATWHDTHLDYWGQGTLVTVSS VL: DIQMTQSPSSLSASVGDRVTITCRASQSIVTYVNWYQQKPGKAPKLLIYAATSRASGVPSRFSGSGSGTDFTLTISSLQPEDFATYYCQQSYDTPLTFGGGTKVEIK
–	–	–	3.51 OD	2.9 OD	2.77 OD	365_A01 (antibody, V domains shown, VH/VL only) VH: EVQLLESGGGLVQPGGSLRLSCAASGFTFSDYGMNWVRQAPGKGLEWVAGINYNGGYTSYADSVKGRFTISRDNSKNTLYLQMNSLRAEDTAVYYCARSATWHDTHLDYWGQGTLVTVSS VL: DIQMTQSPSSLSASVGDRVTITCRASQSILTYVNWYQQKPGKAPKLVIYATTSLASGVPSRFSGSGSGTDFTLTISSLQPEDFATYYCQQSYSTPLTFGGGTKVEIK
–	–	–	3.55 OD	2.75 OD	2.74 OD	365_G12 (antibody, V domains shown, VH/VL only) VH: EVQLLESGGGLVQPGGSLRLSCAASGFTFSSYGMNWVRQAPGKGLEWVAGINYNSGYTSYADSVKGRFTISRDNSKNTLYLQMNSLRAEDTAVYYCARSATWHDTALDYWGQGTLVTVSS VL: DIQMTQSPSSLSASVGDRVTITCRASQSILSYVNWYQQKPGKAPKLVIYAATSRASGVPSRFSGSGSGTDFTLTISSLQPEDFATYYCQQSYSNPLTFGGGTKVEIK
–	–	–	3.28 OD	3.32 OD	3.26 OD	365_B09 (antibody, V domains shown, VH/VL only) VH: EVQLLESGGGLVQPGGSLRLSCAASGFTFDSYSMNWVRQAPGKGLEWVAGINYNSGYKSYADSVKGRFTISRDNSKNTLYLQMNSLRAEDTAVYYCARSATWHDTHLDYWGQGTLVTVSS VL: DIQMTQSPSSLSASVGDRVTITCRASQSILRYLNWYQQKPGKAPKLLIYAATSLHSGVPSRFSGSGSGTDFTLTISSLQPEDFATYYCQQSYDNPLTFGGGTKVEIK
–	–	–	3.51 OD	2.72 OD	2.58 OD	365_D05 (antibody, V domains shown, VH/VL only) VH: EVQLLESGGGLVQPGGSLRLSCAASGFTFDSYSMNWVRQAPGKGLEWVAGINYNGGYTSYADSVKGRFTISRDNSKNTLYLQMNSLRAEDTAVYYCARSATWHDTHLDYWGQGTLVTVSS VL: DIQMTQSPSSLSASVGDRVTITCRASQSILTYVNWYQQKPGKAPKLLIYAATSRASGVPSRFSGSGSGTDFTLTISSLQPEDFATYYCQQSYNSPLTFGGGTKVEIK
–	–	–	3.39 OD	3.18 OD	3.12 OD	365_F07 (antibody, V domains shown, VH/VL only) VH: EVQLLESGGGLVQPGGSLRLSCAASGFTFSSYSMNWVRQAPGKGLEWVSNINYNGGYKSYADSVKGRFTISRDNSKNTLYLQMNSLRAEDTAVYYCARSATWHDTALDYWGQGTLVTVSS VL: DIQMTQSPSSLSASVGDRVTITCRASQSILSYVNWYQQKPGKAPKLVIYAATSRASGVPSRFSGSGSGTDFTLTISSLQPEDFATYYCQQSYDLPLTFGGGTKVEIK
–	–	–	3.5 OD	2.61 OD	2.45 OD	365_E02 (antibody, V domains shown, VH/VL only) VH: EVQLLESGGGLVQPGGSLRLSCAASGFTFSSYSMNWVRQAPGKGLEWVANINYNGGYTSYADSVKGRFTISRDNSKNTLYLQMNSLRAEDTAVYYCAKSATWHDTHLDYWGQGTLVTVSS VL: DIQMTQSPSSLSASVGDRVTITCRASQSIISYLNWYQQKPGKAPKLLIYAATSRASGVPSRFSGSGSGTDFTLTISSLQPEDFATYYCQQSYENPLTFGGGTKVEIK
–	–	–	3.31 OD	1.12 OD	1.15 OD	366_A03 (antibody, V domains shown, VH/VL only) VH: EVQLLESGGGLVQPGGSLRLSCAASGFTFDSYSMNWVRQAPGKGLEWVAGINYNSGYKGYADSVKGRFTISRDNSKNTLYLQMNSLRAEDTAVYYCARSATWHDTHLDYWGQGTLVTVSS VL: DIQMTQSPSSLSASVGDRVTITCRASQSISSYLNWYQQKPGKAPKLLIYAATSLASGVPSRFSGSGSGTDFTLTISSLQPEDFATYYCQQSYSNPLTFGGGTKVEIK
–	–	–	3.63 OD	2.61 OD	2.25 OD	365_F08 (antibody, V domains shown, VH/VL only) VH: EVQLLESGGGLVQPGGSLRLSCAASGFTFDDYGMNWVRQAPGKGLEWVANINYNGGYTSYADSVKGRFTISRDNSKNTLYLQMNSLRAEDTAVYYCARSATWHDTHLDYWGQGTLVTVSS VL: DIQMTQSPSSLSASVGDRVTITCRASQSILSYVNWYQQKPGKAPKLLIYAATSRHSGVPSRFSGSGSGTDFTLTISSLQPEDFATYYCQQSYSLPLTFGGGTKVEIK
–	–	–	3.41 OD	2.25 OD	2.24 OD	365_A07 (antibody, V domains shown, VH/VL only) VH: EVQLLESGGGLVQPGGSLRLSCAASGFTFSSYGMNWVRQAPGKGLEWVAGINYNSGYKGYADSVKGRFTISRDNSKNTLYLQMNSLRAEDTAVYYCARSATWHDTHLDYWGQGTLVTVSS VL: DIQMTQSPSSLSASVGDRVTITCRASQSIVSYLNWYQQKPGKAPKLLIYAATSRASGVPSRFSGSGSGTDFTLTISSLQPEDFATYYCQQSYNLPLTFGGGTKVEIK
–	–	–	3.48 OD	2.6 OD	2.62 OD	366_A05 (antibody, V domains shown, VH/VL only) VH: EVQLLESGGGLVQPGGSLRLSCAASGFTFSSYSMNWVRQAPGKGLEWVAGINYNSGYTGYADSVKGRFTISRDNSKNTLYLQMNSLRAEDTAVYYCARSATWHDTHLDYWGQGTLVTVSS VL: DIQMTQSPSSLSASVGDRVTITCRASQSILTYVNWYQQKPGKAPKLVIYAATSLASGVPSRFSGSGSGTDFTLTISSLQPEDFATYYCQQSYNTPLTFGGGTKVEIK
–	–	–	3.38 OD	2.53 OD	2.65 OD	365_B03 (antibody, V domains shown, VH/VL only) VH: EVQLLESGGGLVQPGGSLRLSCAASGFTFSSYSMNWVRQAPGKGLEWVAGINYNGGYTGYADSVKGRFTISRDNSKNTLYLQMNSLRAEDTAVYYCARSATWHDTHLDYWGQGTLVTVSS VL: DIQMTQSPSSLSASVGDRVTITCRASQSIVSYLNWYQQKPGKAPKLLIYAATSRASGVPSRFSGSGSGTDFTLTISSLQPEDFATYYCQQSYENPLTFGGGTKVEIK
–	–	–	3.45 OD	2.49 OD	2.19 OD	365_A10 (antibody, V domains shown, VH/VL only) VH: EVQLLESGGGLVQPGGSLRLSCAASGFTFSSYGMHWVRQAPGKGLEWVAGINYNSGYTSYADSVKGRFTISRDNSKNTLYLQMNSLRAEDTAVYYCARSATWHDTHLDYWGQGTLVTVSS VL: DIQMTQSPSSLSASVGDRVTITCRASQSILTYLNWYQQKPGKAPKLVIYAVTSLASGVPSRFSGSGSGTDFTLTISSLQPEDFATYYCQQSYDSPLTFGGGTKVEIK
–	–	–	3.28 OD	1.93 OD	1.79 OD	366_A09 (antibody, V domains shown, VH/VL only) VH: EVQLLESGGGLVQPGGSLRLSCAASGFTFSDYGMHWVRQAPGKGLEWVASINYNSGYTSYADSVKGRFTISRDNSKNTLYLQMNSLRAEDTAVYYCARSATWHDTHLDYWGQGTLVTVSS VL: DIQMTQSPSSLSASVGDRVTITCRASQSILTYLNWYQQKPGKAPKLLIYAATSRHSGVPSRFSGSGSGTDFTLTISSLQPEDFATYYCQQSYETPLTFGGGTKVEIK
–	–	–	3.17 OD	1.92 OD	1.94 OD	365_C07 (antibody, V domains shown, VH/VL only) VH: EVQLLESGGGLVQPGGSLRLSCAASGFTFSDYGMNWVRQAPGKGLEWVASINYNGGYTSYADSVKGRFTISRDNSKNTLYLQMNSLRAEDTAVYYCARSATWHDTALDYWGQGTLVTVSS VL: DIQMTQSPSSLSASVGDRVTITCRASQSIVSYVNWYQQKPGKAPKLLIYAATSRASGVPSRFSGSGSGTDFTLTISSLQPEDFATYYCQQSYDTPLTFGGGTKVEIK
–	–	–	3.27 OD	2.18 OD	2.05 OD	365_C09 (antibody, V domains shown, VH/VL only) VH: EVQLLESGGGLVQPGGSLRLSCAASGFTFSDYGMNWVRQAPGKGLEWVSGINYNGGYKSYADSVKGRFTISRDNSKNTLYLQMNSLRAEDTAVYYCARSATWHDTHLDYWGQGTLVTVSS VL: DIQMTQSPSSLSASVGDRVTITCRASQSIVSYVNWYQQKPGKAPKLLIYAATSRASGVPSRFSGSGSGTDFTLTISSLQPEDFATYYCQQSYDTPLTFGGGTKVEIK
